Measured values taken from patent US20210380994A1, “LACTOCOCCUS LACTIS EXPRESSION SYSTEM FOR DELIVERING PROTEINS EFFICACIOUS FOR THE TREATMENT OF EPITHELIAL BARRIER FUNCTION DISORDERS” (Second Genome, Inc., priority 2018, published 2021).

B1: SG-11V5: variant of SEQ ID NO:7 with N53S, N83S, C147V, C151S (protein)
chain: MLEGEESVVYVGKKGVIASLDVETLDQSYYDETELKSYVDAEVEDYTAEHGKSAVKVESLKVEDGVAKLKMKYKTPEDYTAFSGIELYQGKVVASLAAGYVYDGEFARVEEGKVVGAATKQDIYSEDDLKVAIIRANTDVKVDGEIVYVSSQNVKLTGKDSVSIRDGYYLETGSVTASVDVTGQESVGTEQLSGTEQMEMTGEPVNADDTEQTEAAAGDGSFETDVYTFIVYK
modifications: Artificial variant of SG-11 (N53S, N83S, C147V, C151S)
B2: SG-11: Roseburia hominis protein comprising SEQ ID NO:3; tested as SEQ ID NO:5, SEQ ID NO:7 or FLAG-tagged SEQ ID NO:9 (protein, listed as Rosburia hominis)
chain: LEGEESVVYVGKKGVIASLDVETLDQSYYDETELKSYVDAEVEDYTAEHGKNAVKVESLKVEDGVAKLKMKYKTPEDYTAFNGIELYQGKVVASLAAGYVYDGEFARVEEGKVVGAATKQDIYSEDDLKVAIIRANTDVKVDGEICYVSCQNVKLTGKDSVSIRDGYYLETGSVTASVDVTGQESVGTEQLSGTEQMEMTGEPVNADDTEQTEAAAGDGSFETDVYTFIVYK

System: human colonic epithelial cells (HCT8 enterocytes and HT29-MTX goblet cells)
Assay: trans-epithelial electrical resistance (TEER) assay, epithelial/monocyte co-culture disrupted by heat killed E. coli
Assay type: cell-based
Method: Assays were performed as described below in trans-well plates where co-cultures of multiple cell types were performed utilizing a permeable membrane to separate cells. In the apical (top) chamber, human colonic epithelial cells, consisting of a mixture of enterocytes and goblet cells, were cultured until cells obtained tight junction formation and barrier function capacity as assessed by measurement of trans-epithelial electrical resistance (TEER). In the basolateral chamber, monocytes were cultured separately. Epithelial […] were primed with inflammatory cytokines. The assays measured the effect of a therapeutic protein, e.g., SG-11, on epithelial barrier function, muc2 gene expression, and production of cytokines.
Cell culture. The HCT8 human enterocyte cell line (ATCC Cat. No. CCL-244) was maintained in RPMI-1640 medium supplemented with 10% fetal bovine seam, 100 IU/ml penicillin, 100 ? g/ml streptomycin, 10 ? g/ml gentamicin and 0.25 μg/ml amphotericin (cRPMI). HT29-MTX human goblet cells (Sigma-Aldrich (St. Louis, Mo.; Cat. No. 12040401) were maintained in DMEM medium with 10% fetal bovine serum, 100 IU/ml penicillin, 100 ? g/ml streptomycin, 10 ? g/ml gentamicin and 0.25 μg/ml amphotericin (cDMEM). Epithelial cells were passaged by trypsinization and were used between 5 and 15 passages following thawing from liquid nitrogen stocks. U937 monocytes (ATCC Cat. No. 700928) were maintained in cRPMI medium as a suspension culture, and split by dilution as needed to maintain cells between 5×10^5 and 2×10^6 cell/ml. U937 cells were used up to passage 18 following thawing from liquid nitrogen stocks.
Epithelial cell culture. A mixture of HCT8 enterocytes and HT29-MTX goblet cells were plated at a 9:1 ratio, respectively, in the apical chamber of the transwell plate as described previously (Berget et al., 2017, Int J Mol Sci, 18:1573; Beduneau et al., 2014. Eur J Pharm Biopharm, 87:290-298). A total of 10^5 cells were plated in each well (9×10^4 HCT cells and 1×10^4 HT29-MTX cells per well). Epithelial cells were trypsinized from culture flasks and viable cells determined by trypan blue counting. The correct volumes of each cell type were combined in a single tube and centrifuged. The cell pellet was resuspended in cRPMI and added to the apical chamber of the transwell plate. Celle were cultured for 8 to 10 days at 37° C.+5% CO2, and media was changed every 2 days.
Monocyte culture. On day 6 of epithelial cell culture 2×10^5 cells/well U937 monocytes were plated into a 96 well receiver plate. Cells were cultured at 37° C.+5% CO2 and media was changed every 24 hours for four days.
Co-culture assay. Following 8-10 days of culture, 10 ng/ml IFN-© was added to the basolateral chamber of the transwell plate containing enterocytes, for 24 hours at 37° C.+5% CO2. After 24 hours, fresh cRPMI was added to the epithelial cell culture plate. TEER readings were measured after the IFN-© treatment and were used as the pre-treatment TEER value. SG-11 was then added to the apical chamber of the transwell plate at a final concentration of 1 ? g/ml (40 nM). The myosin light chain kinase (MLCK) inhibitor peptide 18 (BioTechne, Minneapolis, Minn.) was used at 50 nM as a positive control to prevent inflammation induced barrier disruption (Zolotarevsky et al., 2002, Gastroenterology. 123:163-172). […]

[1] = Example 12, 1 μg/ml (40 nM), 6 hours pre-incubation, SG-11 = SEQ ID NO:9, HK E. coli alone 78.6%, FIG. 17

Molecule | TEER following disruption by HK E. coli [1] [%] | TEER following disruption by HK E. coli (Example 15, 1 μg/ml, 6 hours pre-incubation, SG-11 = SEQ ID NO:9, HK E. coli alone 78.6%, FIG. 28) [%] | TEER following disruption by HK E. coli (SG-11 1 μg/ml added 6 hours prior to HK E. coli, HK E. coli alone 53.5%, FIG. 1B) [%] | TEER following disruption by HK E. coli (SG-11 (SEQ ID NO:5 or 9) 1 μg/ml (40 nM) added 30 minutes prior to HK E. coli, HK E. coli alone 55.8%, FIG. 1A) [%]
B1 | 89.1 | – | – | –
B2 | 89.5 | 89.5 | 60.6 | 62
